Results on one molecule are retold here after publication PMC3433420, “Comprehensive Binary Interaction Mapping of SH2 Domains via Fluorescence Polarization Reveals Novel Functional Diversification of ErbB Receptors” (PLoS ONE, 2012).

Where “and” joins values, the source holds several entries; their conditions need not be identical. Equal entries are not always repeated. Non-standard residues stand in square brackets, D forms with d. No end group written: not given here. pY = N[C@@H](Cc1ccc(OP(=O)(O)O)cc1)C(=O)O; Rhodamine = not defined here

Experiment in all cases: peptide or protein array; SH2/PTB proteins spotted on aldehyde slides, rhodamine peptide titrated in buffer B (20 mM HEPES, 100 mM KCl, 0.1% Tween-20, 5 mM DTT, pH 7.8), 1 h at room temperature; replicate assays
What all share (details): both partners purified

One assay deals with T1, NCK1 SH2 domain (human, UniProt P16333 282-376).
T1 construct: NCK1, human; source: bacterial expression, purified

In a further assay the target is T2, PTPN6 tandem SH2 domains (human).
T2 construct: PTPN6, human; also called PTPN6-NC; source: bacterial expression, purified

The target of the next assay is T3, SH2D1B SH2 domain (human, UniProt O14796 5-101).
T3 construct: SH2D1B, human; source: bacterial expression, purified
T3 sequence (looked up): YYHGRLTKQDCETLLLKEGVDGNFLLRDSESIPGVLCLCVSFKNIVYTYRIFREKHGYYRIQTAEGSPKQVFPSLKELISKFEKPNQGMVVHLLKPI

Another assay concerns the target T4, SH2D2A SH2 domain (human, UniProt Q9NP31 95-186).
T4 construct: SH2D2A, human; source: bacterial expression, purified

The target in a further assay is T5, SOCS5 SH2 domain (human, UniProt O75159 381-476).
T5 construct: SOCS5, human; source: bacterial expression, purified
T5 sequence (looked up): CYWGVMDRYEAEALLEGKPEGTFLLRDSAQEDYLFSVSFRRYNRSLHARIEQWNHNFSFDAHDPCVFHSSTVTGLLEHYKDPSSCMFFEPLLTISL

The target in assay [1] is T6, SYK N-terminal SH2 domain (human).
T6 construct: SYK, human; source: bacterial expression, purified

T4 sequence (Q9NP31 95-186): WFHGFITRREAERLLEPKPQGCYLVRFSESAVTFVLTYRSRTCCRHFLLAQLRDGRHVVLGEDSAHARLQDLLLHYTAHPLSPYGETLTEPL

Broadly, the Kd is a measure of binding affinity in units of concentration. For Rhodamine-ETDG[pY]VAPLTCSD (reading uncertain) [ErbB2 pY1127 phosphopeptide, rhodamine-labelled, for protein microarrays], the Kd is 6.85 µM in the assay with NCK1 SH2 domain; 1.62 µM in the assay with PTPN6 tandem SH2 domains; 2.28 µM with SH2D1B SH2 domain; 2.75 µM with SH2D2A SH2 domain; 0.698 µM in the assay with SOCS5 SH2 domain; 3.21 µM and 2.33 µM in assay [1].
